In this test the target is CGRP receptor (CALCRL:RAMP1) on CALCRL:RAMP1-CRE-bla Freestyle 293F cells (UniProt Q16602 23-461; O60894 27-148, limits assumed). Nature of the test: cell-based or functional assay.
Chain of CGRP receptor (CALCRL:RAMP1) on CALCRL:RAMP1-CRE-bla Freestyle 293F cells (Q16602 23-461 limits assumed, chain 1 of 2): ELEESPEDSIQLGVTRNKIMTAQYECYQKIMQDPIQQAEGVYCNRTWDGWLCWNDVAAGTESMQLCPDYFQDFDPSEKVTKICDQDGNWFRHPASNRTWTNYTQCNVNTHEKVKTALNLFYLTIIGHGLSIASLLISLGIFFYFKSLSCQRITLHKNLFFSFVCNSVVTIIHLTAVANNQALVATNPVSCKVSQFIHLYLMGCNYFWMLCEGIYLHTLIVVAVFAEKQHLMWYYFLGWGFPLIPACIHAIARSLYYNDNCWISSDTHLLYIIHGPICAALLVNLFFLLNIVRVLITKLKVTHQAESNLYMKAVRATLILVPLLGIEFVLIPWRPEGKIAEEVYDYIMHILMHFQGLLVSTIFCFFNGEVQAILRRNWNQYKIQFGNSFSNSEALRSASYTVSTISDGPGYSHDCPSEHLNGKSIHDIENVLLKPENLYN
Chain of CGRP receptor (CALCRL:RAMP1) on CALCRL:RAMP1-CRE-bla Freestyle 293F cells (O60894 27-148 limits assumed, chain 2 of 2): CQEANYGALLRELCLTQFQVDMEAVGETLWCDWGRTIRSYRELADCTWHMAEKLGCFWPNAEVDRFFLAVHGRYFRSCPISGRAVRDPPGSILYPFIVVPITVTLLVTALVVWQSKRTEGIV

Turning to H-ACDTATCVLGRLSQELHRLQTYPRTNVGSKAF-NH2 (ends and bridges not checked) [ACX017 (SEQ ID NO:1)], the “percent activation of the CGRP receptor (CALCRL:RAMP1-CRE-bla Freestyle 293F agonist screen), EC50” value was approximately 105 nM.

These data come from patent publication US20160207975A1 (published 2016).
